Assay results reported in patent publication US20150196651A1 (published 2015).
Numbered stars: 1 amine (or outer) side, 2 acyl side, 3 side chain; on linkers, the order of the positions; unused ones are H or OH. Square brackets hold non-standard residues; d marks the D form. Side chains are listed from the residue outwards. Ends that are not written are not given here. * marks the point of attachment. γGlu = O=C(O)[C@H](CCC(=O)[*:2])N[*:1]; Palmitoyl = CCCCCCCCCCCCCCCC(=O)*; Myristoyl = CCCCCCCCCCCCCC(=O)*; Lauroyl = CCCCCCCCCCCC(=O)*; Decanoyl = CCCCCCCCCC(=O)*; Nle = CCCC[C@H](N)C(=O)O; Octanoyl = CCCCCCCC(=O)*; GABA = NCCCC(=O)O

B1: analog no. 41 (peptide)
peptide: Lauroyl-TPDINPAWYASRGIRPVGRF-NH2
SMILES: CCCCCCCCCCCC(=O)N[C@H](C(=O)N1CCC[C@H]1C(=O)N[C@@H](CC(=O)O)C(=O)N[C@H](C(=O)N[C@@H](CC(N)=O)C(=O)N1CCC[C@H]1C(=O)N[C@@H](C)C(=O)N[C@@H](Cc1c[nH]c2ccccc12)C(=O)N[C@@H](Cc1ccc(O)cc1)C(=O)N[C@@H](C)C(=O)N[C@@H](CO)C(=O)N[C@@H](CCCNC(=N)N)C(=O)NCC(=O)N[C@H](C(=O)N[C@@H](CCCNC(=N)N)C(=O)N1CCC[C@H]1C(=O)N[C@H](C(=O)NCC(=O)N[C@@H](CCCNC(=N)N)C(=O)N[C@@H](Cc1ccccc1)C(N)=O)C(C)C)[C@@H](C)CC)[C@@H](C)CC)[C@@H](C)O
B2: analog no. 39 (peptide)
peptide: Octanoyl-TPDINPAWYASRGIRPVGRF-NH2
SMILES: CCCCCCCC(=O)N[C@H](C(=O)N1CCC[C@H]1C(=O)N[C@@H](CC(=O)O)C(=O)N[C@H](C(=O)N[C@@H](CC(N)=O)C(=O)N1CCC[C@H]1C(=O)N[C@@H](C)C(=O)N[C@@H](Cc1c[nH]c2ccccc12)C(=O)N[C@@H](Cc1ccc(O)cc1)C(=O)N[C@@H](C)C(=O)N[C@@H](CO)C(=O)N[C@@H](CCCNC(=N)N)C(=O)NCC(=O)N[C@H](C(=O)N[C@@H](CCCNC(=N)N)C(=O)N1CCC[C@H]1C(=O)N[C@H](C(=O)NCC(=O)N[C@@H](CCCNC(=N)N)C(=O)N[C@@H](Cc1ccccc1)C(N)=O)C(C)C)[C@@H](C)CC)[C@@H](C)CC)[C@@H](C)O
B3: analog no. 38 (peptide)
peptide: Myristoyl-QHSMETRTPDINPAWYTGRGIRPVGRF-NH2
SMILES: CCCCCCCCCCCCCC(=O)N[C@@H](CCC(N)=O)C(=O)N[C@@H](Cc1c[nH]cn1)C(=O)N[C@@H](CO)C(=O)N[C@@H](CCSC)C(=O)N[C@@H](CCC(=O)O)C(=O)N[C@H](C(=O)N[C@@H](CCCNC(=N)N)C(=O)N[C@H](C(=O)N1CCC[C@H]1C(=O)N[C@@H](CC(=O)O)C(=O)N[C@H](C(=O)N[C@@H](CC(N)=O)C(=O)N1CCC[C@H]1C(=O)N[C@@H](C)C(=O)N[C@@H](Cc1c[nH]c2ccccc12)C(=O)N[C@@H](Cc1ccc(O)cc1)C(=O)N[C@H](C(=O)NCC(=O)N[C@@H](CCCNC(=N)N)C(=O)NCC(=O)N[C@H](C(=O)N[C@@H](CCCNC(=N)N)C(=O)N1CCC[C@H]1C(=O)N[C@H](C(=O)NCC(=O)N[C@@H](CCCNC(=N)N)C(=O)N[C@@H](Cc1ccccc1)C(N)=O)C(C)C)[C@@H](C)CC)[C@@H](C)O)[C@@H](C)CC)[C@@H](C)O)[C@@H](C)O
notes: lipidized shortened PrRP31 analog; also called 38 short
B4: analog no. 35 (peptide)
peptide: [Nle]ETRTPDINPAWYTGRGIRPVGRF-NH2
modifications: N-terminus assumed
SMILES: CCCC[C@H](N)C(=O)N[C@@H](CCC(=O)O)C(=O)N[C@H](C(=O)N[C@@H](CCCNC(=N)N)C(=O)N[C@H](C(=O)N1CCC[C@H]1C(=O)N[C@@H](CC(=O)O)C(=O)N[C@H](C(=O)N[C@@H](CC(N)=O)C(=O)N1CCC[C@H]1C(=O)N[C@@H](C)C(=O)N[C@@H](Cc1c[nH]c2ccccc12)C(=O)N[C@@H](Cc1ccc(O)cc1)C(=O)N[C@H](C(=O)NCC(=O)N[C@@H](CCCNC(=N)N)C(=O)NCC(=O)N[C@H](C(=O)N[C@@H](CCCNC(=N)N)C(=O)N1CCC[C@H]1C(=O)N[C@H](C(=O)NCC(=O)N[C@@H](CCCNC(=N)N)C(=O)N[C@@H](Cc1ccccc1)C(N)=O)C(C)C)[C@@H](C)CC)[C@@H](C)O)[C@@H](C)CC)[C@@H](C)O)[C@@H](C)O
notes: shortened PrRP31 analog; also called 35 short
B5: analog no. 40 (peptide)
peptide: Decanoyl-TPDINPAWYASRGIRPVGRF-NH2
SMILES: CCCCCCCCCC(=O)N[C@H](C(=O)N1CCC[C@H]1C(=O)N[C@@H](CC(=O)O)C(=O)N[C@H](C(=O)N[C@@H](CC(N)=O)C(=O)N1CCC[C@H]1C(=O)N[C@@H](C)C(=O)N[C@@H](Cc1c[nH]c2ccccc12)C(=O)N[C@@H](Cc1ccc(O)cc1)C(=O)N[C@@H](C)C(=O)N[C@@H](CO)C(=O)N[C@@H](CCCNC(=N)N)C(=O)NCC(=O)N[C@H](C(=O)N[C@@H](CCCNC(=N)N)C(=O)N1CCC[C@H]1C(=O)N[C@H](C(=O)NCC(=O)N[C@@H](CCCNC(=N)N)C(=O)N[C@@H](Cc1ccccc1)C(N)=O)C(C)C)[C@@H](C)CC)[C@@H](C)CC)[C@@H](C)O
B6: analog no. 59 (peptide)
peptide: SRTHRHSMEIKTPDINPAWYASRGIRPVGRF
modifications: (N-palm(N-POE)) at the N-terminus; K(N-palm(N-POE)) at residue 11; C-terminal amide
B7: analog no. 56 (peptide)
peptide: SETHEHSMEIK([γGlu-Palmitoyl])TPDINPAWYASRGIRPVGRF-NH2
modifications: N-terminus assumed
SMILES: CCCCCCCCCCCCCCCC(=O)N[C@@H](CCC(=O)NCCCC[C@H](NC(=O)[C@@H](NC(=O)[C@H](CCC(=O)O)NC(=O)[C@H](CCSC)NC(=O)[C@H](CO)NC(=O)[C@H](Cc1c[nH]cn1)NC(=O)[C@H](CCC(=O)O)NC(=O)[C@H](Cc1c[nH]cn1)NC(=O)[C@@H](NC(=O)[C@H](CCC(=O)O)NC(=O)[C@@H](N)CO)[C@@H](C)O)[C@@H](C)CC)C(=O)N[C@H](C(=O)N1CCC[C@H]1C(=O)N[C@@H](CC(=O)O)C(=O)N[C@H](C(=O)N[C@@H](CC(N)=O)C(=O)N1CCC[C@H]1C(=O)N[C@@H](C)C(=O)N[C@@H](Cc1c[nH]c2ccccc12)C(=O)N[C@@H](Cc1ccc(O)cc1)C(=O)N[C@@H](C)C(=O)N[C@@H](CO)C(=O)N[C@@H](CCCNC(=N)N)C(=O)NCC(=O)N[C@H](C(=O)N[C@@H](CCCNC(=N)N)C(=O)N1CCC[C@H]1C(=O)N[C@H](C(=O)NCC(=O)N[C@@H](CCCNC(=N)N)C(=O)N[C@@H](Cc1ccccc1)C(N)=O)C(C)C)[C@@H](C)CC)[C@@H](C)CC)[C@@H](C)O)C(=O)O
B8: analog no. 37 (peptide)
peptide: QHSMETRTPDINPAWYTGRGIRPVGRF-NH2
notes: shortened PrRP31 analog; also called 37 short
B9: analog no. 36 (peptide)
peptide: Myristoyl-[Nle]ETRTPDINPAWYTGRGIRPVGRF-NH2
SMILES: CCCCCCCCCCCCCC(=O)N[C@@H](CCCC)C(=O)N[C@@H](CCC(=O)O)C(=O)N[C@H](C(=O)N[C@@H](CCCNC(=N)N)C(=O)N[C@H](C(=O)N1CCC[C@H]1C(=O)N[C@@H](CC(=O)O)C(=O)N[C@H](C(=O)N[C@@H](CC(N)=O)C(=O)N1CCC[C@H]1C(=O)N[C@@H](C)C(=O)N[C@@H](Cc1c[nH]c2ccccc12)C(=O)N[C@@H](Cc1ccc(O)cc1)C(=O)N[C@H](C(=O)NCC(=O)N[C@@H](CCCNC(=N)N)C(=O)NCC(=O)N[C@H](C(=O)N[C@@H](CCCNC(=N)N)C(=O)N1CCC[C@H]1C(=O)N[C@H](C(=O)NCC(=O)N[C@@H](CCCNC(=N)N)C(=O)N[C@@H](Cc1ccccc1)C(N)=O)C(C)C)[C@@H](C)CC)[C@@H](C)O)[C@@H](C)CC)[C@@H](C)O)[C@@H](C)O
notes: lipidized shortened PrRP31 analog; also called 36 short

Legend:
[1] = molecular target: T1, rat PrRP receptor in RC-4B/C cells (rat, UniProt Q64121 1-370); test: competition with 125I-rat PrRP31, RC-4B/C cells
T1 construct: whole, on cells; endogenous receptor of RC-4B/C cells (ATCC); also called rat receptor; GPR10 receptor expressed in rat hypophyseal cells
T1 sequence (looked up): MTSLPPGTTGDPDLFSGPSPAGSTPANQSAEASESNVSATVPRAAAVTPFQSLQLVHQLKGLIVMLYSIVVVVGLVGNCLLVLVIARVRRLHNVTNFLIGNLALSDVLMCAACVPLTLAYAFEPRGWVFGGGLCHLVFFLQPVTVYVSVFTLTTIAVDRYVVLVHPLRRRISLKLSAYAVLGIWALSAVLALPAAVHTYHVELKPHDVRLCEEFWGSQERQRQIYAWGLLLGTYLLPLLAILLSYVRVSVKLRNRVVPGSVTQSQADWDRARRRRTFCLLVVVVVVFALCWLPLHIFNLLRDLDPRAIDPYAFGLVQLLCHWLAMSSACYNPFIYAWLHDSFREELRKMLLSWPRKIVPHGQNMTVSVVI
Procedure, shortened: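 Incubation 60 min at room temperature; cells solubilized in 0.1 mol/l NaOH and bound radioactivity γ-counted. Run in duplicate, repeated at least three times.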

[2] = molecular target: T2, human PrRP receptor GPR10 (human, UniProt P49683 1-370); test: competition with 125I-human PrRP31, CHO cells with human GPR10
T2 construct: whole, on cells; also called GPR10 human receptor transfected in CHO cells; human GPR10 receptor
T2 sequence (looked up): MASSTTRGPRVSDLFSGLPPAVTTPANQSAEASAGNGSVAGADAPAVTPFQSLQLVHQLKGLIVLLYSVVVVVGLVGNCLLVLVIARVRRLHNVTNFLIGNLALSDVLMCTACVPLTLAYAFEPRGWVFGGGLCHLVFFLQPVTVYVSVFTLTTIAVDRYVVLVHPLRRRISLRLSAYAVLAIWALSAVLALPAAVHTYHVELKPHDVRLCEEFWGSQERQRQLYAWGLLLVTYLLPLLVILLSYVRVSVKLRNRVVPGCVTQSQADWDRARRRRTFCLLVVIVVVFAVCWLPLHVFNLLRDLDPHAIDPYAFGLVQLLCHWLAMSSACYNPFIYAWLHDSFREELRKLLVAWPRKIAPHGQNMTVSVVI

| % of PrRP31 [1] [%] | Ki [1] [nM] | % of PrRP31 [2] [%] | Ki [2] [nM] | Binder |
| --- | --- | --- | --- | --- |
| 822 | 0.6 | 161 | 2.41 | B1 |
| 530 | 0.93 | 201 | 1.94 | B2 |
| 1330 | 0.37 | 56 | 6.93 | B3 |
| 168 | 2.94 | 113 | 3.44 | B4 |
| 1200 | 0.41 | 129 | 3.02 | B5 |
| 190 | 1.26 | 42.5 | 9.19 | SRTHRHSMEIK([GABA-Palmitoyl])TPDINPAWYASRGIRPVGRF-NH2 [analog no. 53] |
| 663 | 0.36 | 103 | 3.79 | SRTHRHSMEIKTPDINPAWYASRGIRPVGRF-NH2 (not fully specified (residue 11)) [analog no. 57] |
| 85 | 2.82 | 12 | 32.4 | B6 |
| 236 | – | 83 | 4.72 | SETHRHSMEIK([γGlu-Palmitoyl])TPDINPAWYASRGIRPVGRF-NH2 [analog no. 55] |
| 57 | 4.23 | 57 | 5.66 | B7 |
| 189 | 2.61 | 66 | 5.92 | B8 |
| 1100 | 0.45 | 71 | 5.48 | B9 |
